Test results taken from the Human Domainome abundance scans (Beltran et al. 2025).

B1: V(D)J recombination-activating protein 2, residues 415 to 491; numbered along this chain, P55895 (parent)
chain: YWITCCPTCDVDINTWVPFYSTELNKPAMIYCSHGDGHWVHAQCMDLAERTLIHLSAGSNKYYCNEHVEIARALHTP

Variants of: B1
Assay: abundance fitness (aPCA) (normalised: wild type 0, dead -1); higher = more abundant; growth selection in yeast, the domain comes from the species named
Settings: Homo sapiens

Abundance fitness: each site, then its substitutions
Y20: A -0.539 | V -0.719 | N -0.09 | D -0.525 | E -0.576 | M -0.383 | S -0.513 | P -0.378 | G -0.28
I30: M -0.219 | G -0.644 | L 0.122 | R -0.322 | K 0.147
D36: G -0.04 | H -0.214 | F -0.217 | K -0.441 | M -0.107 | N -0.211 | A -0.177 | C -0.092
T15: R -0.474 | F 0.052 | I -0.104 | H 0.03 | G 0.055 | M -0.011 | V 0.015 | A -0.341
Y31: N -0.322 | S -0.188 | E -0.018 | T -0.197 | V -0.241 | C -0.039 | P -0.245 | F -0.061 | M 0.004 | I -0.649 | A -0.193 | H -0.061 | R -0.04 | W -0.193 | D -0.28 | G -0.337 | L 0.005 | K 0.041
M29: A -0.575 | I -0.234 | E -0.421 | R 0.055 | C -0.532 | S 0.208 | L 0.072 | G -0.377
G35: R -0.374 | N 0.137 | Q -0.17 | A -0.164 | K 0.042 | L -0.042 | I -0.07 | W -0.291 | E 0.068 | S -0.136 | V -0.175
A28: C -0.117 | Q -0.104 | F -0.183 | S -0.035 | M -0.213 | N 0.078 | K -0.112 | P -0.334 | T -0.218 | H -0.23 | G -0.775 | V -0.155 | D -0.318 | E -0.172 | W -0.116 | Y 0.009 | R -0.214 | L -0.094
I13: W -0.12 | V -0.35 | E 0.172 | L -0.098 | S -0.264 | A -0.149 | R 0.114 | C -0.059 | T -0.329 | M -0.284 | G -0.193
C9: Q -0.175 | F -0.637 | G -0.916 | T -0.809 | Y -0.739 | R -0.668
N25: M -0.254 | H 0.113 | Y -0.344 | Q 0.132 | G 0.01 | A -0.124 | T -0.05 | R -0.052 | E 0.167 | S -0.042 | V 0.065 | L 0.073 | D -0.297 | C -0.309 | W -0.024
H34: L -0.073 | K -0.211 | V -0.132 | T -0.234 | P -0.808 | F -0.301 | R -0.119 | A -0.035 | D -0.095 | G -0.007 | M -0.046 | C -0.309 | Q 0.051 | S -0.032 | N -0.089 | Y -0.101 | E -0.085
C32: P -0.887 | V -0.746 | R -0.967 | G -1.17 | Y -0.888 | F -0.946 | T -0.99 | S -0.683 | W -0.861 | A -1.15 | D -1.14 | L -0.999 | H -0.804 | N -0.85 | K -1.09
L24: I -0.156 | M -0.319 | Q -0.1 | T -0.081 | S -0.153 | F -0.362 | E 0.296 | W -0.305 | V -0.083 | P -0.56 | Y -0.337 | A -0.164 | C 0.027
V17: N -0.687 | Q 0.074 | S -0.01 | W -0.117 | I -0.153 | L -0.056 | P -0.375 | F 0.109 | R -0.022 | M -0.105 | E 0.046
P18: E -0.28 | L -0.038 | G -0.36 | I -0.892 | S -0.344 | N -0.453 | R -0.381 | H -0.175 | A -0.028 | Q -0.425 | M -0.579
S33: E 0.036 | H -0.116 | N -0.06 | L -0.095 | A 0.069 | V -0.157 | M -0.106 | G -0.065 | C -0.057 | R -0.147 | P -0.126 | I -0.031 | Q -0.091 | K -0.132 | F -0.017 | D 0.035 | W -0.072
E23: G -0.372 | D 0.122 | F -0.901 | K -0.54 | H -0.635 | R -1.03 | S -0.805 | C -0.851
N14: V -0.149 | P -0.346 | Q -0.332 | M -0.01 | T 0.039 | K -0.004 | R -0.137 | A -0.509 | S -0.419 | D 0.385
D12: P -0.392 | G -0.04 | R 0.107 | S -0.229 | L -0.332 | M 0.009 | E 0.083 | T -0.226 | V -0.304 | W -0.317 | N -0.01 | F -0.244
T8: V -0.196 | W -0.627 | S 0.129 | Y -0.541
T22: G -0.353 | M 0.389 | C -0.131 | P -0.281 | L -0.179 | R -0.23 | V -0.062 | A -0.157 | D -0.121 | K 0.052 | F -0.181 | H 0.216 | W -0.121 | S 0.096
F19: G -0.142 | C -0.186 | W 0.043 | D 0.099 | R -0.145 | P -0.509 | S -0.154 | A -0.305 | Y 0.08 | M -0.029 | N 0.191 | E -0.179 | K -0.116
P27: R -0.973 | D -1.01 | F -0.515 | A -0.776 | Q -0.79 | S -0.958 | C -0.938 | V -0.668 | L -0.861 | G -1.09 | H -0.741
K26: M -0.597 | R -0.006 | F -0.116 | G -0.17 | A -0.275 | P -0.786 | E -0.129 | W 0.023 | S -0.174 | V -0.084 | T -0.074 | L -0.063 | N -0.03 | Q -0.179 | Y -0.421
W16: I -0.12 | Q -0.916 | E -0.894 | L -0.346 | T -0.144 | G -0.565 | P -0.471 | F -0.725 | C -0.553 | R -0.35
D10: R 0.195 | S -0.114 | Q 0.121 | K -0.089 | T 0.019 | M -0.325 | G -0.03 | A 0.065 | V 0.145 | W 0.045 | N 0.033 | L 0.102
S21: P -0.004 | R -0.111 | C 0.015 | G -0.108 | Y -0.027 | H 0.086 | W -0.443 | E 0.119 | T -0.321 | D -0.17 | M -0.321 | F -0.154 | Q -0.325 | A -0.187 | V -0.28
V11: C 0.012 | S -0.437 | W -0.178 | M -0.264 | G -0.697 | T -0.336 | A -0.741 | R -0.75 | F -0.386
